{
  "source": "patent US20180177842A1",
  "about": "(CANIMGUIDE THERAPEUTICS, published 2018)",
  "data": [
    {"target": "T1, P3028 (VFDEFKPLVEEPQNLIK, SEQ ID NO: 185), His-tagged (human)", "T1 construct": "Synthetic fragment of human serum albumin (positions 397-413); used in solution as His-tagged peptide PGE73; also called PGE73; not shown: His-tag", "T1 peptide": "VFDEFKPLVEEPQNLIK", "experiment": "PEPSCAN ELISA; peptide on chip, His-P3028 added;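 further: peroxidase color development with ABTS and H2O2 substrate, OD405 imaged by CCD camera with image processing and taken as raw values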", "units": {"RAMPO Score": "rampo units"}, "values": [
      {"binder": "KKLDTFFVKLSLFPER", "note": "[KKLDTFFVKLSLFPER (SEQ ID NO: 383)]", "RAMPO Score": 551},
      {"binder": "KKLDTFFVKLSYFTER", "note": "[KKLDTFFVKLSYFTER (SEQ ID NO: 475)]", "RAMPO Score": 320},
      {"binder": "KKLDTFFVKLSLFTEV", "note": "[KKLDTFFVKLSLFTEV (SEQ ID NO: 521)]", "RAMPO Score": 254},
      {"binder": "KKLDTFFVKLSLFTPR", "note": "[KKLDTFFVKLSLFTPR (SEQ ID NO: 439)]", "RAMPO Score": 351},
      {"binder": "KKLDTFFVKLSVFTER", "note": "[KKLDTFFVKLSVFTER (SEQ ID NO: 359)]", "RAMPO Score": 545},
      {"binder": "KKLDTFFVKLSLHTER", "note": "[KKLDTFFVKLSLHTER (SEQ ID NO: 364)]", "RAMPO Score": 1050},
      {"binder": "KKLDTFFVKLSLFTRR", "note": "[KKLDTFFVKLSLFTRR (SEQ ID NO: 531)]", "RAMPO Score": 237},
      {"binder": "KKLDTFFVKLYLFTER", "note": "[KKLDTFFVKLYLFTER (SEQ ID NO: 415)]", "RAMPO Score": 402},
      {"binder": "KKLDTFFVKLSLFYER", "note": "[KKLDTFFVKLSLFYER (SEQ ID NO: 514)]", "RAMPO Score": 270},
      {"binder": "KKLDTFFVKLSLFTET", "note": "[KKLDTFFVKLSLFTET (SEQ ID NO: 392)]", "RAMPO Score": 292},
      {"binder": "KKLDTFFVKLSLWTER", "note": "[KKLDTFFVKLSLWTER (SEQ ID NO: 375)]", "RAMPO Score": 430},
      {"binder": "KKLDTFFVKLSLFTEH", "note": "[KKLDTFFVKLSLFTEH (SEQ ID NO: 528)]", "RAMPO Score": 239},
      {"binder": "KKLDTFFVKLSLFTEN", "note": "[KKLDTFFVKLSLFTEN (SEQ ID NO: 390)]", "RAMPO Score": 311},
      {"binder": "KKLDTFFVKLSLFTLR", "note": "[KKLDTFFVKLSLFTLR (SEQ ID NO: 525)]", "RAMPO Score": 246},
      {"binder": "KKLDTFFVKLSLSTER", "note": "[KKLDTFFVKLSLSTER (SEQ ID NO: 372)]", "RAMPO Score": 635},
      {"binder": "KKLDTFFVKLSLYTER", "note": "[KKLDTFFVKLSLYTER (SEQ ID NO: 503)]", "RAMPO Score": 291},
      {"binder": "KKLDTFFVKLSNFTER", "note": "[KKLDTFFVKLSNFTER (SEQ ID NO: 354)]", "RAMPO Score": 462},
      {"binder": "KKLDTFFVKLSTFTER", "note": "[KKLDTFFVKLSTFTER (SEQ ID NO: 358)]", "RAMPO Score": 437},
      {"binder": "KKLDTFFVKLSPFTER", "note": "[KKLDTFFVKLSPFTER (SEQ ID NO: 497)]", "RAMPO Score": 297},
      {"binder": "KKLDTFFVKLSLPTER", "note": "[KKLDTFFVKLSLPTER (SEQ ID NO: 369)]", "RAMPO Score": 696},
      {"binder": "KKLDTFFVKLSLTTER", "note": "[KKLDTFFVKLSLTTER (SEQ ID NO: 373)]", "RAMPO Score": 494},
      {"binder": "KKLDTFFVKLSLMTER", "note": "[KKLDTFFVKLSLMTER (SEQ ID NO: 367)]", "RAMPO Score": 1190},
      {"binder": "KKLDTFFVKLSLFTEY", "note": "[KKLDTFFVKLSLFTEY (SEQ ID NO: 393)]", "RAMPO Score": 311},
      {"binder": "KKLDTFFVKLSLFTQR", "note": "[KKLDTFFVKLSLFTQR (SEQ ID NO: 450)]", "RAMPO Score": 344},
      {"binder": "KKLDTFFVKLSWFTER", "note": "[KKLDTFFVKLSWFTER (SEQ ID NO: 360)]", "RAMPO Score": 409},
      {"binder": "KKLDTFFVKLSLFTKR", "note": "[KKLDTFFVKLSLFTKR (SEQ ID NO: 471)]", "RAMPO Score": 324},
      {"binder": "KKLDTFFVKLSLNTER", "note": "[KKLDTFFVKLSLNTER (SEQ ID NO: 368)]", "RAMPO Score": 862},
      {"binder": "KKLDTFFVKLSLFRER", "note": "[KKLDTFFVKLSLFRER (SEQ ID NO: 33)]", "RAMPO Score": 264},
      {"binder": "KKLDTFFVKLSLFTEM", "note": "[KKLDTFFVKLSLFTEM (SEQ ID NO: 529)]", "RAMPO Score": 238},
      {"binder": "KKLDTFFVKLSLLTER", "note": "[KKLDTFFVKLSLLTER (SEQ ID NO: 366)]", "RAMPO Score": 448},
      {"binder": "KKLDTFFVKLSLFTDR", "note": "[KKLDTFFVKLSLFTDR (SEQ ID NO: 387)]", "RAMPO Score": 404},
      {"binder": "KKLDTFFVKLSLFQER", "note": "[KKLDTFFVKLSLFQER (SEQ ID NO: 493)]", "RAMPO Score": 301},
      {"binder": "KKLDTFFVKLSLFTEK", "note": "[KKLDTFFVKLSLFTEK (SEQ ID NO: 389)]", "RAMPO Score": 291},
      {"binder": "KKLDTFFVKLSLFTYR", "note": "[KKLDTFFVKLSLFTYR (SEQ ID NO: 459)]", "RAMPO Score": 340},
      {"binder": "KKLDTFFVKLTLFTER", "note": "[KKLDTFFVKLTLFTER (SEQ ID NO: 349)]", "RAMPO Score": 520},
      {"binder": "KKLDTFFVKLSLGTER", "note": "[KKLDTFFVKLSLGTER (SEQ ID NO: 363)]", "RAMPO Score": 531},
      {"binder": "KKLDTFFVKLWLFTER", "note": "[KKLDTFFVKLWLFTER (SEQ ID NO: 472)]", "RAMPO Score": 324},
      {"binder": "KKLDTFFVKLSSFTER", "note": "[KKLDTFFVKLSSFTER (SEQ ID NO: 357)]", "RAMPO Score": 478},
      {"binder": "KKLDTFFVKLSMFTER", "note": "[KKLDTFFVKLSMFTER (SEQ ID NO: 353)]", "RAMPO Score": 499},
      {"binder": "KKLDTFFVKLSLITER", "note": "[KKLDTFFVKLSLITER (SEQ ID NO: 365)]", "RAMPO Score": 468},
      {"binder": "KKLDTFFVKLSLQTER", "note": "[KKLDTFFVKLSLQTER (SEQ ID NO: 370)]", "RAMPO Score": 1140},
      {"binder": "KKLDTFFVKLSLRTER", "note": "[KKLDTFFVKLSLRTER (SEQ ID NO: 371)]", "RAMPO Score": 502},
      {"binder": "KKLDTFFVKLSLFTEF", "note": "[KKLDTFFVKLSLFTEF (SEQ ID NO: 388)]", "RAMPO Score": 297},
      {"binder": "KKLDTFFVKLSLFTHR", "note": "[KKLDTFFVKLSLFTHR (SEQ ID NO: 478)]", "RAMPO Score": 318},
      {"binder": "KKLDTFFVKLSLFTMR", "note": "[KKLDTFFVKLSLFTMR (SEQ ID NO: 524)]", "RAMPO Score": 247},
      {"binder": "KKLDTFFVKLSQFTER", "note": "[KKLDTFFVKLSQFTER (SEQ ID NO: 355)]", "RAMPO Score": 651},
      {"binder": "KKLDTFFVKLSLFVER", "note": "[KKLDTFFVKLSLFVER (SEQ ID NO: 385)]", "RAMPO Score": 380},
      {"binder": "KKLDTFFVKLSRFTER", "note": "[KKLDTFFVKLSRFTER (SEQ ID NO: 356)]", "RAMPO Score": 483},
      {"binder": "KKLDTFFVKLSLFSER", "note": "[KKLDTFFVKLSLFSER (SEQ ID NO: 384)]", "RAMPO Score": 369},
      {"binder": "KKLDTFFVKLVLFTER", "note": "[KKLDTFFVKLVLFTER (SEQ ID NO: 419)]", "RAMPO Score": 392},
      {"binder": "KKLDTFFVKLSLFWER", "note": "[KKLDTFFVKLSLFWER (SEQ ID NO: 386)]", "RAMPO Score": 374},
      {"binder": "KKLDTFFVKLSLVTER", "note": "[KKLDTFFVKLSLVTER (SEQ ID NO: 374)]", "RAMPO Score": 446}
    ]}
  ]
}
